# Reference: the supplement of paper PMC10266784
# B1: library; numbered along this chain (parent)
# chain: MAAAAAAAAEQQSSNGPVKKSMREKAVERRSVNKEHNSNFKAGYIPIDEDRLHKTGLRGRKGNLAICVIILLFILAVINLIITLVIWAVIRIGPNGCDSMEFHESGLLRFKQVSDMGVIHPLYKSTVGGRRNENLVITGNNQPIVFQQGTTKLSVENNKTSITSDIGMQFFDPRTQNILFSTDYETHEFHLPSGVKSLNVQKASTERITSNATSDLNIKVDGRAIVRGNEGVFIMGKTIEFHMGGNMELKAENSIILNGSVMVSTTRLPSSSSGDQLGSGDWVRYKLCMCADGTLFKVQVTSQNMGCQISDNPCGNTH
# Variants of: B1
# Assay: SGCB cell-surface expression functional score (HA stain, bin4 vs bin1, normalised to synonymous) (log10 ratio); higher = more cell-surface SGCB (functional)
# Protocol: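 Deep mutational scan of full-length human SGCB (YFP-SGCB-HA, NNN codon sublibraries A-F) delivered by lentivirus at low MOI into ADG-HEK293 cells stably expressing SGCA, SGCD and SGCG. YFP-positive cells were stained for surface HA on unpermeabilized cells and FACS-sorted into bins. The functional score is log10(frequency in high bin 4 / frequency in low bin 1), normalised per chunk so that synonymous variants have mean 0 and SD 0.5. Scores are the median over codons and over duplicate biological replicates; scores below -0.5 are called non-functional. Scale: negative means deleterious.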
row,Variant,SGCB cell-surface expression functional score (log10)
1,MAAAAAAAAEQQSSNGPVKKSMREKAVERRSVNKHHNSNFKAGYIPIDEDRLHKTGLRGRKGNLAICVIILLFILAVINLIITLVIWAVIRIGPNGCDSMEFHESGLLRFKQVSDMGVIHPLYKSTVGGRRNENLVITGNNQPIVFQQGTTKLSVENNKTSITSDIGMQFFDPRTQNILFSTDYETHEFHLPSGVKSLNVQKASTERITSNATSDLNIKVDGRAIVRGNEGVFIMGKTIEFHMGGNMELKAENSIILNGSVMVSTTRLPSSSSGDQLGSGDWVRYKLCMCADGTLFKVQVTSQNMGCQISDNPCGNTH [E35H],0.32
2,MAAAAAAAAEQQSSNGPVKKSMREKAVERRSVNKFHNSNFKAGYIPIDEDRLHKTGLRGRKGNLAICVIILLFILAVINLIITLVIWAVIRIGPNGCDSMEFHESGLLRFKQVSDMGVIHPLYKSTVGGRRNENLVITGNNQPIVFQQGTTKLSVENNKTSITSDIGMQFFDPRTQNILFSTDYETHEFHLPSGVKSLNVQKASTERITSNATSDLNIKVDGRAIVRGNEGVFIMGKTIEFHMGGNMELKAENSIILNGSVMVSTTRLPSSSSGDQLGSGDWVRYKLCMCADGTLFKVQVTSQNMGCQISDNPCGNTH [E35F],-0.1
3,MAAAAAAAAEQQSSNGPVKKSMREKAVERRSVNKIHNSNFKAGYIPIDEDRLHKTGLRGRKGNLAICVIILLFILAVINLIITLVIWAVIRIGPNGCDSMEFHESGLLRFKQVSDMGVIHPLYKSTVGGRRNENLVITGNNQPIVFQQGTTKLSVENNKTSITSDIGMQFFDPRTQNILFSTDYETHEFHLPSGVKSLNVQKASTERITSNATSDLNIKVDGRAIVRGNEGVFIMGKTIEFHMGGNMELKAENSIILNGSVMVSTTRLPSSSSGDQLGSGDWVRYKLCMCADGTLFKVQVTSQNMGCQISDNPCGNTH [E35I],0.08
4,MAAAAAAAAEQQSSNGPVKKSMREKAVERRSVNKAHNSNFKAGYIPIDEDRLHKTGLRGRKGNLAICVIILLFILAVINLIITLVIWAVIRIGPNGCDSMEFHESGLLRFKQVSDMGVIHPLYKSTVGGRRNENLVITGNNQPIVFQQGTTKLSVENNKTSITSDIGMQFFDPRTQNILFSTDYETHEFHLPSGVKSLNVQKASTERITSNATSDLNIKVDGRAIVRGNEGVFIMGKTIEFHMGGNMELKAENSIILNGSVMVSTTRLPSSSSGDQLGSGDWVRYKLCMCADGTLFKVQVTSQNMGCQISDNPCGNTH [E35A],0.3
5,MAAAAAAAAEQQSSNGPVKKSMREKAVERRSVNKCHNSNFKAGYIPIDEDRLHKTGLRGRKGNLAICVIILLFILAVINLIITLVIWAVIRIGPNGCDSMEFHESGLLRFKQVSDMGVIHPLYKSTVGGRRNENLVITGNNQPIVFQQGTTKLSVENNKTSITSDIGMQFFDPRTQNILFSTDYETHEFHLPSGVKSLNVQKASTERITSNATSDLNIKVDGRAIVRGNEGVFIMGKTIEFHMGGNMELKAENSIILNGSVMVSTTRLPSSSSGDQLGSGDWVRYKLCMCADGTLFKVQVTSQNMGCQISDNPCGNTH [E35C],-0.07
6,MAAAAAAAAEQQSSNGPVKKSMREKAVERRSVNKGHNSNFKAGYIPIDEDRLHKTGLRGRKGNLAICVIILLFILAVINLIITLVIWAVIRIGPNGCDSMEFHESGLLRFKQVSDMGVIHPLYKSTVGGRRNENLVITGNNQPIVFQQGTTKLSVENNKTSITSDIGMQFFDPRTQNILFSTDYETHEFHLPSGVKSLNVQKASTERITSNATSDLNIKVDGRAIVRGNEGVFIMGKTIEFHMGGNMELKAENSIILNGSVMVSTTRLPSSSSGDQLGSGDWVRYKLCMCADGTLFKVQVTSQNMGCQISDNPCGNTH [E35G],0.11
7,MAAAAAAAAEQQSSNGPVKKSMREKAVERRSVNKDHNSNFKAGYIPIDEDRLHKTGLRGRKGNLAICVIILLFILAVINLIITLVIWAVIRIGPNGCDSMEFHESGLLRFKQVSDMGVIHPLYKSTVGGRRNENLVITGNNQPIVFQQGTTKLSVENNKTSITSDIGMQFFDPRTQNILFSTDYETHEFHLPSGVKSLNVQKASTERITSNATSDLNIKVDGRAIVRGNEGVFIMGKTIEFHMGGNMELKAENSIILNGSVMVSTTRLPSSSSGDQLGSGDWVRYKLCMCADGTLFKVQVTSQNMGCQISDNPCGNTH [E35D],0.11
8,MAAAAAAAAEQQSSNGPVKKSMREKAVERRSVNWEHNSNFKAGYIPIDEDRLHKTGLRGRKGNLAICVIILLFILAVINLIITLVIWAVIRIGPNGCDSMEFHESGLLRFKQVSDMGVIHPLYKSTVGGRRNENLVITGNNQPIVFQQGTTKLSVENNKTSITSDIGMQFFDPRTQNILFSTDYETHEFHLPSGVKSLNVQKASTERITSNATSDLNIKVDGRAIVRGNEGVFIMGKTIEFHMGGNMELKAENSIILNGSVMVSTTRLPSSSSGDQLGSGDWVRYKLCMCADGTLFKVQVTSQNMGCQISDNPCGNTH [K34W],0.11
9,MAAAAAAAAEQQSSNGPVKKSMREKAVERRSVNIEHNSNFKAGYIPIDEDRLHKTGLRGRKGNLAICVIILLFILAVINLIITLVIWAVIRIGPNGCDSMEFHESGLLRFKQVSDMGVIHPLYKSTVGGRRNENLVITGNNQPIVFQQGTTKLSVENNKTSITSDIGMQFFDPRTQNILFSTDYETHEFHLPSGVKSLNVQKASTERITSNATSDLNIKVDGRAIVRGNEGVFIMGKTIEFHMGGNMELKAENSIILNGSVMVSTTRLPSSSSGDQLGSGDWVRYKLCMCADGTLFKVQVTSQNMGCQISDNPCGNTH [K34I],-0.05
10,MAAAAAAAAEQQSSNGPVKKSMREKAVERRSVNYEHNSNFKAGYIPIDEDRLHKTGLRGRKGNLAICVIILLFILAVINLIITLVIWAVIRIGPNGCDSMEFHESGLLRFKQVSDMGVIHPLYKSTVGGRRNENLVITGNNQPIVFQQGTTKLSVENNKTSITSDIGMQFFDPRTQNILFSTDYETHEFHLPSGVKSLNVQKASTERITSNATSDLNIKVDGRAIVRGNEGVFIMGKTIEFHMGGNMELKAENSIILNGSVMVSTTRLPSSSSGDQLGSGDWVRYKLCMCADGTLFKVQVTSQNMGCQISDNPCGNTH [K34Y],0.56
11,MAAAAAAAAEQQSSNGPVKKSMREKAVERRSVNLEHNSNFKAGYIPIDEDRLHKTGLRGRKGNLAICVIILLFILAVINLIITLVIWAVIRIGPNGCDSMEFHESGLLRFKQVSDMGVIHPLYKSTVGGRRNENLVITGNNQPIVFQQGTTKLSVENNKTSITSDIGMQFFDPRTQNILFSTDYETHEFHLPSGVKSLNVQKASTERITSNATSDLNIKVDGRAIVRGNEGVFIMGKTIEFHMGGNMELKAENSIILNGSVMVSTTRLPSSSSGDQLGSGDWVRYKLCMCADGTLFKVQVTSQNMGCQISDNPCGNTH [K34L],0.21
12,MAAAAAAAAEQQSSNGPVKKSMREKAVERRSVNTEHNSNFKAGYIPIDEDRLHKTGLRGRKGNLAICVIILLFILAVINLIITLVIWAVIRIGPNGCDSMEFHESGLLRFKQVSDMGVIHPLYKSTVGGRRNENLVITGNNQPIVFQQGTTKLSVENNKTSITSDIGMQFFDPRTQNILFSTDYETHEFHLPSGVKSLNVQKASTERITSNATSDLNIKVDGRAIVRGNEGVFIMGKTIEFHMGGNMELKAENSIILNGSVMVSTTRLPSSSSGDQLGSGDWVRYKLCMCADGTLFKVQVTSQNMGCQISDNPCGNTH [K34T],0.27
13,MAAAAAAAAEQQSSNGPVKKSMREKAVERRSVNNEHNSNFKAGYIPIDEDRLHKTGLRGRKGNLAICVIILLFILAVINLIITLVIWAVIRIGPNGCDSMEFHESGLLRFKQVSDMGVIHPLYKSTVGGRRNENLVITGNNQPIVFQQGTTKLSVENNKTSITSDIGMQFFDPRTQNILFSTDYETHEFHLPSGVKSLNVQKASTERITSNATSDLNIKVDGRAIVRGNEGVFIMGKTIEFHMGGNMELKAENSIILNGSVMVSTTRLPSSSSGDQLGSGDWVRYKLCMCADGTLFKVQVTSQNMGCQISDNPCGNTH [K34N],-0.07
14,MAAAAAAAAEQQSSNGPVKKSMREKAVERRSVNVEHNSNFKAGYIPIDEDRLHKTGLRGRKGNLAICVIILLFILAVINLIITLVIWAVIRIGPNGCDSMEFHESGLLRFKQVSDMGVIHPLYKSTVGGRRNENLVITGNNQPIVFQQGTTKLSVENNKTSITSDIGMQFFDPRTQNILFSTDYETHEFHLPSGVKSLNVQKASTERITSNATSDLNIKVDGRAIVRGNEGVFIMGKTIEFHMGGNMELKAENSIILNGSVMVSTTRLPSSSSGDQLGSGDWVRYKLCMCADGTLFKVQVTSQNMGCQISDNPCGNTH [K34V],0.44
15,MAAAAAAAAEQQSSNGPVKKSMREKAVERRSVNMEHNSNFKAGYIPIDEDRLHKTGLRGRKGNLAICVIILLFILAVINLIITLVIWAVIRIGPNGCDSMEFHESGLLRFKQVSDMGVIHPLYKSTVGGRRNENLVITGNNQPIVFQQGTTKLSVENNKTSITSDIGMQFFDPRTQNILFSTDYETHEFHLPSGVKSLNVQKASTERITSNATSDLNIKVDGRAIVRGNEGVFIMGKTIEFHMGGNMELKAENSIILNGSVMVSTTRLPSSSSGDQLGSGDWVRYKLCMCADGTLFKVQVTSQNMGCQISDNPCGNTH [K34M],-0.24
16,MAAAAAAAAEQQSSNGPVKKSMREKAVERRSVNQEHNSNFKAGYIPIDEDRLHKTGLRGRKGNLAICVIILLFILAVINLIITLVIWAVIRIGPNGCDSMEFHESGLLRFKQVSDMGVIHPLYKSTVGGRRNENLVITGNNQPIVFQQGTTKLSVENNKTSITSDIGMQFFDPRTQNILFSTDYETHEFHLPSGVKSLNVQKASTERITSNATSDLNIKVDGRAIVRGNEGVFIMGKTIEFHMGGNMELKAENSIILNGSVMVSTTRLPSSSSGDQLGSGDWVRYKLCMCADGTLFKVQVTSQNMGCQISDNPCGNTH [K34Q],-0.08
17,MAAAAAAAAEQQSSNGPVKKSMREKAVERRSVNSEHNSNFKAGYIPIDEDRLHKTGLRGRKGNLAICVIILLFILAVINLIITLVIWAVIRIGPNGCDSMEFHESGLLRFKQVSDMGVIHPLYKSTVGGRRNENLVITGNNQPIVFQQGTTKLSVENNKTSITSDIGMQFFDPRTQNILFSTDYETHEFHLPSGVKSLNVQKASTERITSNATSDLNIKVDGRAIVRGNEGVFIMGKTIEFHMGGNMELKAENSIILNGSVMVSTTRLPSSSSGDQLGSGDWVRYKLCMCADGTLFKVQVTSQNMGCQISDNPCGNTH [K34S],0.52
18,MAAAAAAAAEQQSSNGPVKKSMREKAVERRSVNREHNSNFKAGYIPIDEDRLHKTGLRGRKGNLAICVIILLFILAVINLIITLVIWAVIRIGPNGCDSMEFHESGLLRFKQVSDMGVIHPLYKSTVGGRRNENLVITGNNQPIVFQQGTTKLSVENNKTSITSDIGMQFFDPRTQNILFSTDYETHEFHLPSGVKSLNVQKASTERITSNATSDLNIKVDGRAIVRGNEGVFIMGKTIEFHMGGNMELKAENSIILNGSVMVSTTRLPSSSSGDQLGSGDWVRYKLCMCADGTLFKVQVTSQNMGCQISDNPCGNTH [K34R],0.1
19,MAAAAAAAAEQQSSNGPVKKSMREKAVERRSVNPEHNSNFKAGYIPIDEDRLHKTGLRGRKGNLAICVIILLFILAVINLIITLVIWAVIRIGPNGCDSMEFHESGLLRFKQVSDMGVIHPLYKSTVGGRRNENLVITGNNQPIVFQQGTTKLSVENNKTSITSDIGMQFFDPRTQNILFSTDYETHEFHLPSGVKSLNVQKASTERITSNATSDLNIKVDGRAIVRGNEGVFIMGKTIEFHMGGNMELKAENSIILNGSVMVSTTRLPSSSSGDQLGSGDWVRYKLCMCADGTLFKVQVTSQNMGCQISDNPCGNTH [K34P],0.25
